Measured values reported in article PMC9475539 (The EMBO Journal, 2022).
Residue numbers refer to the chain shown, from its start. Numbers in names are those of the source.

B1: PerM from Escherichia coli (natural protein, E. coli K-12, UniProt P0AFI9 1-353, looked up)
chain: MLEMLMQWYRRRFSDPEAIALLVILVAGFGIIFFFSGLLAPLLVAIVLAYLLEWPTVRLQSIGCSRRWATSIVLVVFVGILLLMAFVVLPIAWQQGIYLIRDMPGMLNKLSDFAATLPRRYPALMDAGIIDAMAENMRSRMLTMGDSVVKISLASLVGLLTIAVYLVLVPLMVFFLLKDKEQMLNAVRRVLPRNRGLAGQVWKEMNQQITNYIRGKVLEMIVVGIATWLGFLLFGLNYSLLLAVLVGFSVLIPYIGAFVVTIPVVGVALFQFGAGTEFWSCFAVYLIIQALDGNLLVPVLFSEAVNLHPLVIILSVVIFGGLWGFWGVFFAIPLATLIKAVIHAWPDGQIAQE
B2: TqsA (transporter of quorum-sensing signal AI-2) from Escherichia coli (natural protein, E. coli K-12, UniProt P0AFS5 1-344, looked up)
chain: MAKPIITLNGLKIVIMLGMLVIILCGIRFAAEIIVPFILALFIAVILNPLVQHMVRWRVPRVLAVSILMTIIVMAMVLLLAYLGSALNELTRTLPQYRNSIMTPLQALEPLLQRVGIDVSVDQLAHYIDPNAAMTLLTNLLTQLSNAMSSIFLLLLTVLFMLLEVPQLPGKFQQMMARPVEGMAAIQRAIDSVSHYLVLKTAISIITGLVAWAMLAALDVRFAFVWGLLAFALNYIPNIGSVLAAIPPIAQVLVFNGFYEALLVLAGYLLINLVFGNILEPRIMGRGLGLSTLVVFLSLIFWGWLLGPVGMLLSVPLTIIVKIALEQTAGGQSIAVLLSDLNKE
B3: TqsA P237A (natural protein, E. coli K-12, UniProt P0AFS5 1-344, looked up)
chain: B2 chain with P237A
B4: TqsA R61L (natural protein, E. coli K-12, UniProt P0AFS5 1-344, looked up)
chain: B2 chain with R61L
B5: TqsA N234L (natural protein, E. coli K-12, UniProt P0AFS5 1-344, looked up)
chain: B2 chain with N234L
B6: TqsA E164Q (natural protein, E. coli K-12, UniProt P0AFS5 1-344, looked up)
chain: B2 chain with E164Q
B7: TqsA K200L (natural protein, E. coli K-12, UniProt P0AFS5 1-344, looked up)
chain: B2 chain with K200L
B8: TqsA E280Q (natural protein, E. coli K-12, UniProt P0AFS5 1-344, looked up)
chain: B2 chain with E280Q
B9: TqsA N238L (natural protein, E. coli K-12, UniProt P0AFS5 1-344, looked up)
chain: B2 chain with N238L
B10: YdiK from Escherichia coli (natural protein, E. coli K-12, UniProt P0AFS7 1-370, looked up)
chain: MVNVRQPRDVAQILLSVLFLAIMIVACLWIVQPFILGFAWAGTVVIATWPVLLRLQKIMFGRRSLAVLVMTLLLVMVFIIPIALLVNSIVDGSGPLIKAISSGDMTLPDLAWLNTIPVIGAKLYAGWHNLLDMGGTAIMAKVRPYIGTTTTWFVGQAAHIGRFMVHCALMLLFSALLYWRGEQVAQGIRHFATRLAGVRGDAAVLLAAQAIRAVALGVVVTALVQAVLGGIGLAVSGVPYATLLTVLMILSCLVQLGPLPVLIPAIIWLYWTGDTTWGTVLLVWSGVVGTLDNVIRPMLIRMGADLPLILILSGVIGGLIAFGMIGLFIGPVLLAVSWRLFAAWVEEVPPPTDQPEEILEELGEIEKPNK
B11: YhhT from Escherichia coli (natural protein, E. coli K-12, UniProt P0AGM0 1-349, looked up)
chain: METPQPDKTGMHILLKLASLVVILAGIHAAADIIVQLLLALFFAIVLNPLVTWFIRRGVQRPVAITIVVVVMLIALTALVGVLAASFNEFISMLPKFNKELTRKLFKLQEMLPFLNLHMSPERMLQRMDSEKVVTFTTALMTGLSGAMASVLLLVMTVVFMLFEVRHVPYKMRFALNNPQIHIAGLHRALKGVSHYLALKTLLSLWTGVIVWLGLELMGVQFALMWAVLAFLLNYVPNIGAVISAVPPMIQVLLFNGVYECILVGALFLVVHMVIGNILEPRMMGHRLGMSTMVVFLSLLIWGWLLGPVGMLLSVPLTSVCKIWMETTKGGSKLAILLGPGRPKSRLPG

Legend:
[1] = molecular target: the molecule itself; assay: native gel or EMSA
[2] = molecular target: the molecule itself; assay: cryo-EM structure
[3] = molecular target: the molecule itself; assay: SEC + native gel or EMSA
[4] = molecular target: the molecule itself; assay: cryo-EM 2D class averages

Protein	stoichiometry N [3]	further results
B1	–	stoichiometry N [1]: 2
B2	–	stoichiometry N [2]: 5
B3	5	–
B4	5	–
B5	5	–
B6	5	–
B7	5	–
B8	5	–
B9	5	–
B10	–	stoichiometry N [2]: 5
B11	–	stoichiometry N [4]: 5
